Values quoted from earlier work in patent US5380646A, “Thrombus detection using radiolabelled disintegrins” (Temple University of the Commonwealth System of Higher …, priority 1992, dated 1995).

Test system: thrombi
Settings: literature, in words

B1: tissue plasminogen activator: plasminogen activator (protein, UniProt P00750 36-562, looked up)
Tissue-type plasminogen …: SYQVICRDEKTQMIYQQHQSWLRPVLRSNRVEYCWCNSGRAQCHSVPVKSCSEPRCFNGGTCQQALYFSDFVCQCPEGFAGKCCEIDTRATCYEDQGISYRGTWSTAESGAECTNWNSSALAQKPYSGRRPDAIRLGLGNHNYCRNPDRDSKPWCYVFKAGKYSSEFCSTPACSEGNSDCYFGNGSAYRGTHSLTESGASCLPWNSMILIGKVYTAQNPSAQALGLGKHNYCRNPDGDAKPWCHVLKNRRLTWEYCDVPSCSTCGLRQYSQPQFRIKGGLFADIASHPWQAAIFAKHRRSPGERFLCGGILISSCWILSAAHCFQERFPPHHLTVILGRTYRVVPGEEEQKFEVEKYIVHKEFDDDTYDNDIALLQLKSDSSRCAQESSVVRTVCLPPADLQLPDWTECELSGYGKHEALSPFYSERLKEAHVRLYPSSRCTSQHLLNRTVTDNMLCAGDTRSGGPQANLHDACQGDSGGPLVCLNDGRMTLVGIISWGLGCGQKDVPGVYTKVTNYLDWIRDNMRP
ability to image or detect thrombi: only with marginal success
